First the molecules themselves.
B1: PU.1 motif oligo 8 (dsDNA)
DNA 1: ACGTCACTTCCCCTTAACGT
DNA 2: ACGTTAAGGGGAAGTGACGT
B2: PU.1 motif oligo 9 (dsDNA)
DNA 1: ACGTCACTTCCTCTCAACGT
DNA 2: ACGTTGAGAGGAAGTGACGT
B3: PU.1 motif oligo 73 (dsDNA)
DNA 1: ACGTAACTTCTTCAAAACGT
DNA 2: ACGTTTTGAAGAAGTTACGT
B4: PU.1 motif oligo 67 (dsDNA)
DNA 1: ACGTGACTTCCTTCACACGT
DNA 2: ACGTGTGAAGGAAGTCACGT
B5: PU.1 motif oligo 70 (dsDNA)
DNA 1: ACGTATCTTCCTCACTACGT
DNA 2: ACGTAGTGAGGAAGATACGT
B6: PU.1 motif oligo 71 (dsDNA)
DNA 1: ACGTTGCTTCCTCCCTACGT
DNA 2: ACGTAGGGAGGAAGCAACGT
B7: PU.1 motif oligo 10 (dsDNA)
DNA 1: ACGTCACTTCCTGTTTACGT
DNA 2: ACGTAAACAGGAAGTGACGT
B8: PU.1 motif oligo 75 (dsDNA)
DNA 1: ACGTCAGTTCTGCATTACGT
DNA 2: ACGTAATGCAGAACTGACGT
B9: PU.1 motif oligo 69 (dsDNA)
DNA 1: ACGTCAGTTCTGCTTTACGT
DNA 2: ACGTAAAGCAGAACTGACGT
B10: PU.1 motif oligo 68 (dsDNA)
DNA 1: ACGTGACTTCTGCTTTACGT
DNA 2: ACGTAAAGCAGAAGTCACGT
B11: PU.1 motif oligo 72 (dsDNA)
DNA 1: ACGTAATTTCCTCATCACGT
DNA 2: ACGTGATGAGGAAATTACGT
B12: PU.1 motif oligo 74 (dsDNA)
DNA 1: ACGTCTCTTCCTTAAAACGT
DNA 2: ACGTTTTAAGGAAGAGACGT
B13: PU.1 motif oligo 66 (dsDNA)
DNA 1: ACGTCAGTTCTCTTTTACGT
DNA 2: ACGTAAAAGAGAACTGACGT
B14: PU.1 motif oligo 65 (dsDNA)
DNA 1: ACGTTTCTTCCTCTTCACGT
DNA 2: ACGTGAAGAGGAAGAAACGT

As usually defined, the Kd is the concentration at which binding is half-saturated.

The data set concerns the target PU.1 (human, UniProt P17947 1-270). Briefly: MST; MST: 20 mM Tris-HCl pH 7.6, 1.5 mM MgCl2, 0.5 mM EGTA, 10% glycerol, 300 mM KCl, 10 mM DTT, 25 C; 50 nM Cy3-dsDNA, PU.1 1:1 dilutions from 23 uM. The note with it: protein: recombinant; tags: N-terminal His-tag; label: Cy3 on upper strand.
Take B1: the dissociation constant (Kd) came to 441 ± 18 nM.
Under B2 stands 676 ± 67 nM; under B3, 1520 ± 580 nM.
B4: the Kd stood at 1240 ± 370 nM.
Take B5: the Kd was determined as 2020 ± 100 nM.
For B6 the value was 2200 ± 1640 nM.
For B7 the value was 175 ± 16 nM; for B8, 1190 ± 140 nM.
Regarding B9, the dissociation constant (Kd) came to 909 ± 28 nM.
Consider B10, for which the Kd amounted to 828 ± 51 nM.
Under B11 stands 1080 ± 251 nM.
Under B12 stands 1150 nM; under B13, 2000 ± 40 nM.
Under B14 stands 872 ± 57 nM.

Source of the values: paper PMC3711439, “Mechanisms of in vivo binding site selection of the hematopoietic master transcription factor PU.1”.
